Results taken from article PMC2900151 (Biochemistry, 2010).

Target: T1, soluble recombinant human FGFR3c human-IgG chimeric protein (human, UniProt P22607 23-375)
T1 sequence (looked up): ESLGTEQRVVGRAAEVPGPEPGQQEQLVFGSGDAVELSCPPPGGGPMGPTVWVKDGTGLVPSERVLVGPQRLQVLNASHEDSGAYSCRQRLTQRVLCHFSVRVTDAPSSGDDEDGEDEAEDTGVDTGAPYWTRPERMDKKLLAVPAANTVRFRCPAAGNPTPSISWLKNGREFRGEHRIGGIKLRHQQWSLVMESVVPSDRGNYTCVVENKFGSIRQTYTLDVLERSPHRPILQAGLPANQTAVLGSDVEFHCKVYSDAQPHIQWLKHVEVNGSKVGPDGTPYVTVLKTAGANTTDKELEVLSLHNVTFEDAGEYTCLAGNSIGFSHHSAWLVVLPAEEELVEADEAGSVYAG
Assay: ligand and carbohydrate engagement

B1: recombinant human FGF18 (ligand, UniProt O76093 28-207, looked up)
chain: EENVDFRIHVENQTRARDDVSRKQLRLYQLYSRTSGKHIQVLGRRISARGEDGDKYAQLLVETDTFGSQVRIKGKETEFYLCMNRKGKLVGKPDGTSKECVFIEKVLENNYTALMSAKYSGWYVGFTKKGRPRKGPKTRENQQDVHFMKRYPKGQPELQKPFKYTTVTKRSRRIRPTHPA
binding result: binds
